Source: paper PMC3335734

Columns and labels:
FliM-YFP (E. coli) = molecular target: T1, FliM-YFP (E. coli) (UniProt P06974)
T1 sequence: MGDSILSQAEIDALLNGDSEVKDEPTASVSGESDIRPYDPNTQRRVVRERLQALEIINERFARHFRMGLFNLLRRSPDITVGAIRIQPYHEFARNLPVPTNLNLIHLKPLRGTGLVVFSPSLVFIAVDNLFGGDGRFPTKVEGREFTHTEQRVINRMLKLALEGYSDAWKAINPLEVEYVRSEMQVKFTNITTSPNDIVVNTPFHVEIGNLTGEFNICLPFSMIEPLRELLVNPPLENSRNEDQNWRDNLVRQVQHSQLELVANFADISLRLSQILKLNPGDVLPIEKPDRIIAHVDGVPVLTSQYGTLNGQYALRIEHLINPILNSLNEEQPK

wild-type FliM (E. coli) = molecular target: T2, wild-type FliM (E. coli) (UniProt P06974)
T2 sequence: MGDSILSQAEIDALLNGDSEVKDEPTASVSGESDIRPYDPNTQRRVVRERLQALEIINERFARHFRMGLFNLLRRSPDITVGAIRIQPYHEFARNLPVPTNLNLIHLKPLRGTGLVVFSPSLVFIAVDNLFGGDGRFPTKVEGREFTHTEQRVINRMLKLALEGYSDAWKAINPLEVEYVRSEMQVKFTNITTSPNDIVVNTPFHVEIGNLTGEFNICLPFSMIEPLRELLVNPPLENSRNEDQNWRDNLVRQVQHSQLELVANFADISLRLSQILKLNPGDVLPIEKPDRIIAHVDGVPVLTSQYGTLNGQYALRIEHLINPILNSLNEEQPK

- CW bias of motors, bead assay, cheR cheB cells expressing FliM-YFP (FliM-YFP (E. coli)): 61%
- speed of motors, bead assay, cheR cheB cells expressing FliM-YFP (FliM-YFP (E. coli)): 50.4 Hz
- switching rate of motors, bead assay, cheR cheB cells expressing FliM-YFP (FliM-YFP (E. coli)): 3.8 s⁻¹
- CW bias of motors, bead assay, cheR cheB cells expressing wild-type FliM (wild-type FliM (E. coli)): 58%
- speed of motors, bead assay, cheR cheB cells expressing wild-type FliM (wild-type FliM (E. coli)): 51.5 Hz
- switching rate of motors, bead assay, cheR cheB cells expressing wild-type FliM (wild-type FliM (E. coli)): 3.4 s⁻¹
B1: CheY-P (natural protein)
chain: MADKELKFLVVDDFSTMRRIVRNLLKELGFNNVEEAEDGVDALNKLQAGGYGFVISDWNMPNMDGLELLKTIRADGAMSALPVLMVTAEAKKENIIAAAQAGASGYVVKPFTAATLEEKLNKIFEKLGM
modifications: phosphorylated (CheY-P); residue not given
